US10005829B2, “Synthetic linear apelin mimetics for the treatment of heart failure” (priority 2012, dated 2018)
[ ]: non-standard residue; d: D form. pGlu = O=C1CC[C@@H](C(=O)O)N1; dNle = CCCC[C@@H](N)C(=O)O; Aib = CC(C)(N)C(=O)O

Molecular target: T1, APJ receptor (human, UniProt P35414 1-380)
T1 sequence (looked up): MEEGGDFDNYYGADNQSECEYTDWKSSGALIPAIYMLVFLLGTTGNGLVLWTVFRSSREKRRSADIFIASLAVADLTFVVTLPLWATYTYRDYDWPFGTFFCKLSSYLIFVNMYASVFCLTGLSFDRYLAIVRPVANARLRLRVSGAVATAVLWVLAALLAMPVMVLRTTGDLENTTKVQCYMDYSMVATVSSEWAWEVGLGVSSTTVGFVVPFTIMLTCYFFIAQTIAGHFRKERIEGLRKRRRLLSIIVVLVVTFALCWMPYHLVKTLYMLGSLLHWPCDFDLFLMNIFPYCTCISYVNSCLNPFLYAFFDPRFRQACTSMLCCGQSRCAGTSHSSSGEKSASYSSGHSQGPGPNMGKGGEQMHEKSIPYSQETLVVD
Test: cell-based or functional assay

Binder: [pGlu]RPRL[dA][dH]KGP[dNle][dA][dF]-OH [pE-R-P-R-L-a-h-K-G-P-nle-a-f-OH]
- hAPJ Ca^2+ Flux EC50: 8.8 nM

B1: pE-R-P-R-L-k-H-K-G-P-nle-a-f-OH (peptide)
peptide: [pGlu]RPRL[dK]HKGP[dNle][dA][dF]-OH
SMILES: CCCC[C@@H](NC(=O)[C@@H]1CCCN1C(=O)CNC(=O)[C@H](CCCCN)NC(=O)[C@H](Cc1c[nH]cn1)NC(=O)[C@@H](CCCCN)NC(=O)[C@H](CC(C)C)NC(=O)[C@H](CCCNC(=N)N)NC(=O)[C@@H]1CCCN1C(=O)[C@H](CCCNC(=N)N)NC(=O)[C@@H]1CCC(=O)N1)C(=O)N[C@H](C)C(=O)N[C@H](Cc1ccccc1)C(=O)O
- hAPJ Ca^2+ Flux EC50: 1060 nM

B2: pE-R-P-R-L-s-H-K-G-P-nle-a-f-OH (peptide)
peptide: [pGlu]RPRL[dS]HKGP[dNle][dA][dF]-OH
SMILES: CCCC[C@@H](NC(=O)[C@@H]1CCCN1C(=O)CNC(=O)[C@H](CCCCN)NC(=O)[C@H](Cc1c[nH]cn1)NC(=O)[C@@H](CO)NC(=O)[C@H](CC(C)C)NC(=O)[C@H](CCCNC(=N)N)NC(=O)[C@@H]1CCCN1C(=O)[C@H](CCCNC(=N)N)NC(=O)[C@@H]1CCC(=O)N1)C(=O)N[C@H](C)C(=O)N[C@H](Cc1ccccc1)C(=O)O
- hAPJ Ca^2+ Flux EC50: 0.9 nM

B3: pE-R-P-R-L-a-H-K-G-Pip-nle-a-f-OH (peptide)
peptide: ERPRLAHKGXLAF
modifications: pE (pyroglutamic acid) at 1; D-Ala at 6; Pip (pipecolic acid) at 10; D-Nle at 11; D-Ala at 12; D-Phe at 13
- hAPJ Ca^2+ Flux EC50: 2.3 nM

B4: pE-R-P-R-L-a-H-K-G-P-nle-p-f-OH (peptide)
peptide: [pGlu]RPRL[dA]HKGP[dNle][dP][dF]-OH
SMILES: CCCC[C@@H](NC(=O)[C@@H]1CCCN1C(=O)CNC(=O)[C@H](CCCCN)NC(=O)[C@H](Cc1c[nH]cn1)NC(=O)[C@@H](C)NC(=O)[C@H](CC(C)C)NC(=O)[C@H](CCCNC(=N)N)NC(=O)[C@@H]1CCCN1C(=O)[C@H](CCCNC(=N)N)NC(=O)[C@@H]1CCC(=O)N1)C(=O)N1CCC[C@@H]1C(=O)N[C@H](Cc1ccccc1)C(=O)O
- hAPJ Ca^2+ Flux EC50: 1.1 nM

B5: pE-R-P-R-L-a-Aib-K-G-P-nle-a-f-OH (peptide)
peptide: [pGlu]RPRL[dA][Aib]KGP[dNle][dA][dF]-OH
SMILES: CCCC[C@@H](NC(=O)[C@@H]1CCCN1C(=O)CNC(=O)[C@H](CCCCN)NC(=O)C(C)(C)NC(=O)[C@@H](C)NC(=O)[C@H](CC(C)C)NC(=O)[C@H](CCCNC(=N)N)NC(=O)[C@@H]1CCCN1C(=O)[C@H](CCCNC(=N)N)NC(=O)[C@@H]1CCC(=O)N1)C(=O)N[C@H](C)C(=O)N[C@H](Cc1ccccc1)C(=O)O
- hAPJ Ca^2+ Flux EC50: 2.1 nM

B6: pE-R-P-R-L-a-H-K-G-P-nle-(D-Leu)-f-OH (peptide)
peptide: [pGlu]RPRL[dA]HKGP[dNle][dL][dF]-OH
SMILES: CCCC[C@@H](NC(=O)[C@@H]1CCCN1C(=O)CNC(=O)[C@H](CCCCN)NC(=O)[C@H](Cc1c[nH]cn1)NC(=O)[C@@H](C)NC(=O)[C@H](CC(C)C)NC(=O)[C@H](CCCNC(=N)N)NC(=O)[C@@H]1CCCN1C(=O)[C@H](CCCNC(=N)N)NC(=O)[C@@H]1CCC(=O)N1)C(=O)N[C@H](CC(C)C)C(=O)N[C@H](Cc1ccccc1)C(=O)O
- hAPJ Ca^2+ Flux EC50: 3.2 nM

B7: pE-R-P-R-L-(D-Leu)-H-K-G-P-nle-a-f-OH (peptide)
peptide: [pGlu]RPRL[dL]HKGP[dNle][dA][dF]-OH
SMILES: CCCC[C@@H](NC(=O)[C@@H]1CCCN1C(=O)CNC(=O)[C@H](CCCCN)NC(=O)[C@H](Cc1c[nH]cn1)NC(=O)[C@@H](CC(C)C)NC(=O)[C@H](CC(C)C)NC(=O)[C@H](CCCNC(=N)N)NC(=O)[C@@H]1CCCN1C(=O)[C@H](CCCNC(=N)N)NC(=O)[C@@H]1CCC(=O)N1)C(=O)N[C@H](C)C(=O)N[C@H](Cc1ccccc1)C(=O)O
- hAPJ Ca^2+ Flux EC50: 155 nM
